Laboratory results taken from paper PMC4557296 (2015).

Target: unlabelled HP1α (human, UniProt P45973 1-191)
Sequence (P45973 whole entry): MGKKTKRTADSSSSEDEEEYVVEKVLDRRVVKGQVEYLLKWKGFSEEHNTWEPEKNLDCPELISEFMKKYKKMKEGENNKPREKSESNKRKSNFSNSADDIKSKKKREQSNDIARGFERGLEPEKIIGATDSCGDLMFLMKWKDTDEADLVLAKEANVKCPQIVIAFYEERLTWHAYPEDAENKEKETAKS

Kd: 7.57 µM
B1: H3K9me3 1–14 peptide (peptide)
peptide: ARTKQTARKSTGGK
modifications: trimethyl-lysine at K9
